Laboratory results reported in patent publication US11839642B2, “Anti-angiogenin peptides, compositions, and methods of use” (The Board of Regents of the University of Oklahoma, priority 2018, dated 2023).

Molecular target: T1, angiogenin (Homo sapiens, UniProt P03950)
T1 construct: purchased R&D systems, Inc., Minneapolis
Assay: Affinity-selection (biopanning) of Ph.D.-12 phage library against angiogenin, DNA sequencing of plaques
Assay type: binding
Settings: after fourth round of affinity-selection
Procedure: Phage affinity-selection (biopanning) procedure was performed by following the standard protocol with minor modifications (FIG. 1). The target protein angiogenin (R&D systems, Inc., Minneapolis) used for biopanning was diluted to 20, 4, 0.8 and 0.16 μg/mL in 0.1 M NaHCO3 (pH=8.6) in the first, second, third and fourth round, respectively. During each round, 400 μL of angiogenin with designated concentration, was added into a well (diameter is 15.6 mm) of the 24 well cell culture plate (Cat. #: 142475, Thermo Fisher Scientific), and incubated overnight at 4° C. with the lid on in a humidified container. Then the supernatant was pipetted out and the plate was firmly slapped face down on a paper towel to remove the residual solution. Afterwards, 500 μL of blocking buffer (5 mg/mL BSA, 0.1M NaHCO3) was added into the well and incubated for 3 h at 4° C., after which the supernatant was discarded. […]
A small amount (5 μL) of the above eluate mixture was diluted 10-fold with PBS buffer. […] The titer was calculated by this equation: titer=1000×N×M pfu/mL, where N and M are the dilution factor and the number of the blue phage plaques on a plate, respectively. […]

T1 sequence (P03950 25-147): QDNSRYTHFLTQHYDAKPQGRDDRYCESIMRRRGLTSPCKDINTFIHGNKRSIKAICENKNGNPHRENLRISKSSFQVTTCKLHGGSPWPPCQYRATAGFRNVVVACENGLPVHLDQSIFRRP

WPYWNHHSHNNV (PEPTIDE (1)..(12) Completely synthesized in the lab - Ph.D.-12 Phage Display Peptide Library) [WV peptide]
repeats of the peptide sequence among 57 sequenced plaques: 11 repeats

FHHPSIHDRHRH (PEPTIDE (1)..(12) Completely synthesized in the lab - Ph.D.-12 Phage Display Peptide Library) [FH peptide]
repeats of the peptide sequence among 57 sequenced plaques: 4 repeats
